The values below come from article PMC10415612.

For orientation: Kd means the equilibrium constant for the complex coming apart. The low end stands for tighter binding, the high end for weaker binding.

The target of test [1] is bacterial proteasome activator (Bpa), fluorescein-labelled (M. tuberculosis) (UniProt P9WKX3).
Test [2] has the same target. Put plainly: MST.
The target in test [3] is bacterial proteasome activator (Bpa), labelled with RED-NHS second generation dye (M. tuberculosis) (UniProt P9WKX3). Put plainly: MST; temperature-related fluorescence intensity changes (T-jump model) on a Monolith NT.115; 250 nM Bpa-RED protomer titrated with serial dilutions of peptides 1-7; buffer M (50 mM HEPES-KOH pH 7.5, 150 mM NaCl, 5 mM MgCl2, 5% glycerol, 0.1% pluronic 127, 2% DMSO); 25°C; qualitative screen, then peptide 1 in triplicates.

Test [4] has as its target bacterial proteasome activator (Bpa), fluorescein-labelled (M. tuberculosis) (UniProt P9WKX3). Put plainly: MST. This is another data set of the same source.

Read-outs that look alike come from different tables or passages of the source.

Substance HspR H24A (natural protein) gave a Bpa-mediated proteasomal degradation by 20S CP WT, SDS-PAGE time course, 37°C (unlabelled Bpa) (% degraded after 2 h) in test [1] of 90. Further, the dissociation constant Kd in test [2] came to 12.1 µM.

In test [3], HspR peptide 1 (residues 16-30) showed a Kd of 330 µM.

For “HspRΔC9, C-terminal truncation variant of HspR (domain or fragment)”, the Kd in test [4] was 3.62 µM.

In test [1], “heat shock repressor HspR, wild type (natural protein)” came in with a Bpa-mediated proteasomal degradation by 20S CP WT, SDS-PAGE time course, 37°C (unlabelled Bpa) (min to degradation) of less than 5. Moreover, the Kd was 5.6 µM in test [4] and 3.56 µM in test [2].
